Results from CN115819587A (BEIJING DONGFANG BIOTECH CO LTD; BEIJING JINGYI TAIXIANG …, dated 2023).

Assays:
huFc-NKG2E/CD94 = target: T1, huFc-NKG2E/CD94 (UniProt Q07444 94-240; Q13241 32-179, limits assumed); assay: ELISA, dilution series of MA-1 on huFc-NKG2E/CD94, anti-mouse Ig-HRP
T1 construct: Construct known only by its name; not shown: human Fc (huFc)

huFc-NKG2C/CD94 = target: T2, huFc-NKG2C/CD94 (UniProt P26717 94-231; Q13241 32-179, limits assumed); assay: ELISA, dilution series of MA-1 on huFc-NKG2C/CD94, anti-mouse Ig-HRP
T2 construct: Construct known only by its name; not shown: human Fc (huFc)
T2 sequence (P26717 94-231 limits assumed, chain 1 of 2): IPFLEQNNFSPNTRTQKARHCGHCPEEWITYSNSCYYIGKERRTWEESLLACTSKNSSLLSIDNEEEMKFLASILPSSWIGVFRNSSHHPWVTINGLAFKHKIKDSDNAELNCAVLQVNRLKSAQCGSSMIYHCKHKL
T2 sequence (Q13241 32-179 limits assumed, chain 2 of 2): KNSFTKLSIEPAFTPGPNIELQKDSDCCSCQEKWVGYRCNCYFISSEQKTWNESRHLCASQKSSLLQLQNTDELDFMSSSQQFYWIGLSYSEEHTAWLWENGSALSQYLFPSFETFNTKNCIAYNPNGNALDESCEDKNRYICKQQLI

huFc-NKG2A/CD94 = target: T3, huFc-NKG2A/CD94 (UniProt P26715 94-233; Q13241 32-179, limits assumed); assay: phage supernatant ELISA on huFc-NKG2A/CD94 against huFc-NKG2C/CD94 and huFc-NKG2E/CD94; criterion of selection met by MA-1
T3 construct: Construct known only by its name; the order of the pieces follows the name huFc-NKG2A; not shown: human Fc (huFc)
T3 sequence (P26715 94-233 limits assumed, chain 1 of 2): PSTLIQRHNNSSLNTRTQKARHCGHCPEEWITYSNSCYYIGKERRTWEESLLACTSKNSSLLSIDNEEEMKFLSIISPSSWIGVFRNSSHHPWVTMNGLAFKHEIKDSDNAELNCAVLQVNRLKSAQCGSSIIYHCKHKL
T3 sequence (Q13241 32-179 limits assumed, chain 2 of 2): as the sequence (Q13241 32-179 limits assumed, chain 2 of 2) above

T1 sequence (Q07444 94-240 limits assumed, chain 1 of 2): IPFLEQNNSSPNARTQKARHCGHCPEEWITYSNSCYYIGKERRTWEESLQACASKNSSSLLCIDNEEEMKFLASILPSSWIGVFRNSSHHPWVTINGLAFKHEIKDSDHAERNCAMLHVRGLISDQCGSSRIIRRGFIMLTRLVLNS
T1 sequence (Q13241 32-179 limits assumed, chain 2 of 2): as the sequence (Q13241 32-179 limits assumed, chain 2 of 2) above

B1: MA-1 鼠源全抗分子 (mouse IgG2a / mouse Ck full antibody) (antibody, V domains shown)
VH: EVKLEESGGGLVKPGGSLKLSCAASGFAFSDYDMSWVRQTPEKRLEWVATISSGGSYTYYPDSVKGRFTISRDNARNTLYLQMSSLRSEDTALYYCTSPRQVGLRKAFDYWGQGTTLTVSS
VL: DIVVTQSPALMSASPGEKVTMTCSASSSVSYMYWYQQKPRSSPKSWIYLTSNLASGVPARFSGSGSGTSYSLTISSMEAEDAATYYCQQWSSNPFTFGSGTKLEIKR
notes: plain joining would double 'AD' at the junction; also called MA-1鼠源抗体; 抗NKG2A单克隆抗体MA-1
B1: no binding (huFc-NKG2E/CD94); no binding (huFc-NKG2C/CD94).

B2: MA-1 噬菌体单克隆抗体 (phage-displayed single-chain antibody MA-1) (scFv)
chain: EVKLEESGGGLVKPGGSLKLSCAASGFAFSDYDMSWVRQTPEKRLEWVATISSGGSYTYYPDSVKGRFTISRDNARNTLYLQMSSLRSEDTALYYCTSPRQVGLRKAFDYWGQGTTLTVSSDIVVTQSPALMSASPGEKVTMTCSASSSVSYMYWYQQKPRSSPKSWIYLTSNLASGVPARFSGSGSGTSYSLTISSMEAEDAATYYCQQWSSNPFTFGSGTKLEIKRAD
B2 was tested, and the “OD450nm ratio, NKG2A against NKG2C/E” value (huFc-NKG2A/CD94) was ≥ 3 fold.
